We go through 6 substances from US20250090699A1, “FAP TARGETING CYCLIC PEPTIDES AND CONJUGATES THEREOF” (Novartis AG, priority 2023, published 2025).

Starred links: 1 amine or outer side, 2 acyl side, 3 side chain; linkers in the order of their positions; H or OH if unused. Non-standard residues stand in square brackets, D forms with d. Primed or numbered codes have the meaning given here. *: point of attachment. F(4OEtNHDOTA-Lu) = lutetium complex of (S)-2,2',2''-(10-(2-((2-(4-(2-amino-2-carboxyethyl)phenoxy)ethyl)amino)-2-oxoethyl)-1,4,7,10-tetraazacyclododecane-1,4,7-triyl)triacetic acid (Phe with 4-O-ethylamino-DOTA-Lu), O=C([O-])CN1CCN(CC(=O)[O-])CCN(CC(=O)NCCOc2ccc(C[C@H](N[*:1])C(=O)[*:2])cc2)CCN(CC(=O)[O-])CC1.[Lu+3]; F(4amPEG2NHDOTA-Lu)″ = lutetium (S)-2,2',2''-(10-(1-(4-(2-amino-2-carboxyethyl)phenyl)-3,12-dioxo-5,8-dioxa-2,11-diazatridecan-13-yl)-1,4,7,10-tetraazacyclododecane-1,4,7-triyl)triacetic acid, O=C([O-])CN1CCN(CC(=O)[O-])CCN(CC(=O)NCCOCCOCC(=O)NCc2ccc(C[C@H](N[*:1])C(=O)[*:2])cc2)CCN(CC(=O)[O-])CC1.[Lu+3]; COpipzaa″ = 4-(carboxymethyl)piperazine-1-carbonyl on Lys N6, O=C(O)CN1CCN(C(=O)*)CC1; COpipzaa = 4-(carboxymethyl)piperazine-1-carbonyl, O=C(O)CN1CCN(C(=O)*)CC1; F(4amPEG2NHRDOTAGA-Lu) = Phe with 4-aminomethyl-PEG2-NH-DOTAGA, Lu complex; F(4amPEG2NHDOTA-Ga)″ = Phe with 4-aminomethyl-PEG2-NH-DOTA, Ga complex; X4 = 4‑(carboxymethyl)piperazine‑1‑carbonyl, O=C(O)CN1CCN(C(=O)*)CC1; hS(Pr) = O-propyl-L-homoserine, CCCOCC[C@H](N[*:1])C(=O)[*:2]; NMeF = CN[C@@H](Cc1ccccc1)C(=O)O; Ahp(2) = CCCCC[C@H](N)C(=O)O

Assay [1] concerns the target T1, mouse FAP (Mus musculus, UniProt P97321).
T1 construct: biotinylated His, Avi tag, mouse FAP (26-761, FAP-M82Q5); His; Avi tag (biotinylated); purchased AcroBiosystems FAP-M82Q5
T1 sequence (P97321 26-761): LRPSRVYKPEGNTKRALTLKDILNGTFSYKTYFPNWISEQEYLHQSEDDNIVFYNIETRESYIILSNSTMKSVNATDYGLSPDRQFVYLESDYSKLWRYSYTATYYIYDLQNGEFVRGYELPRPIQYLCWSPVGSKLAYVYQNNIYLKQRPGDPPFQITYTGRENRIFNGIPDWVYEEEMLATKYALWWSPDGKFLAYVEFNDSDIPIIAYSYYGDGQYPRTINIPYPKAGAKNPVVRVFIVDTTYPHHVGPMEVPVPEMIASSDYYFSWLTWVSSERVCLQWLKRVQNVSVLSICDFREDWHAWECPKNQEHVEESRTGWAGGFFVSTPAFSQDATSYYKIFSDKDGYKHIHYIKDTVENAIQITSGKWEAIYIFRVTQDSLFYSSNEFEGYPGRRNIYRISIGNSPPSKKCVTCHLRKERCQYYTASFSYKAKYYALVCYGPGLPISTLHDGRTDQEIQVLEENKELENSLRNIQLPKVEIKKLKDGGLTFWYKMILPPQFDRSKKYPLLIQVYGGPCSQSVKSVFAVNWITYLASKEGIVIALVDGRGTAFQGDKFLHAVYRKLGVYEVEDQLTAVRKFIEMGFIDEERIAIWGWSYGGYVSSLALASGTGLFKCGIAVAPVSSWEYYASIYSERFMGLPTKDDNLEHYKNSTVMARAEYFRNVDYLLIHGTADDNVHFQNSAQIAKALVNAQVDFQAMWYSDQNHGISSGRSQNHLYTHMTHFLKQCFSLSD
The assay can be described thus: Surface plasmon resonance (SPR) for peptide affinity, mouse FAP. It is filed as binding. In short, it runs like this:
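Biotinylated His/Avi-tagged FAP ectodomains (human 26-760, mouse 26-761) captured or immobilized on Biacore sensor chips; peptides run at 25 °C in HBS-EP+ pH 7.6 with 2% DMSO, single-cycle kinetics, 8 concentrations. KD from 1:1 binding-model fit of sensorgrams.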
On the technique in general: SPR reads the build-up and loss of mass on a sensor chip optically.

For a further assay, the target named is T2, human FAP (Homo sapiens, UniProt Q12884).
T2 construct: the biotinylated His, Avi tag, human FAP (26-760, FAP-H82Q6); His; Avi tag (biotinylated); purchased AcroBiosystems FAP-H82Q6
T2 sequence (Q12884 26-760): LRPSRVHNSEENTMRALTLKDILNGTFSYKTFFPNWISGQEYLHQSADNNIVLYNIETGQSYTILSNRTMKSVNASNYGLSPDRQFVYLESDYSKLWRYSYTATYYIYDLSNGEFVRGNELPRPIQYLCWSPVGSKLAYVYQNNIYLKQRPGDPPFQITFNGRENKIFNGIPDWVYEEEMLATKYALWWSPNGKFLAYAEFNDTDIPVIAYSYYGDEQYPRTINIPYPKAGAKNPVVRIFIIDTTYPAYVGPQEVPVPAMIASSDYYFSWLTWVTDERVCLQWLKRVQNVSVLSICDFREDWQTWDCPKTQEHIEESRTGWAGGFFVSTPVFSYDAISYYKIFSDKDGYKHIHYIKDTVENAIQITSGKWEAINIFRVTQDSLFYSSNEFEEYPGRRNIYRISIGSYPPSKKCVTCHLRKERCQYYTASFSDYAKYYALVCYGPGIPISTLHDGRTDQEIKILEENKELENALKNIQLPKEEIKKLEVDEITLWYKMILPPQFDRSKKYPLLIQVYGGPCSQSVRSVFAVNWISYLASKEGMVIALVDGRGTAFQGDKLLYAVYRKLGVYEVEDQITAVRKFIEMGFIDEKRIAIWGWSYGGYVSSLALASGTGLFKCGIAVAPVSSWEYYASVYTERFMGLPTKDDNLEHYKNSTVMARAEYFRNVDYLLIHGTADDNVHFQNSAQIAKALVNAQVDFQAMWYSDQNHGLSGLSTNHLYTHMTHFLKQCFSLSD
Description: Enzymatic FAP competition assay (Z-Gly-Pro-AMC fluorescence), human FAP. The following applies: read-out: h. FAP, Enz., IC50. Format: biochemical. In short, it runs like this: (§1)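 Biotinylated His/Avi-tagged FAP ectodomain (human 26-760, mouse 26-761) at 0.01 nM, preincubated 24 h with peptides (14 concentrations, up to 1 μM) in pH 7.5 phosphate, 150 mM NaCl, 0.05% Tween20, 1% DMSO. Then 50 μM Z-Gly-Pro-AMC, 4 h at 22-24° C; AMC fluorescence (380/460 nm) gave IC50 from duplicate points.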

Assay [2] deals with T1, mouse FAP. The assay can be described thus: Enzymatic FAP competition assay (Z-Gly-Pro-AMC fluorescence), mouse FAP. It is filed as biochemical. The note with it: read-out: m. FAP, Enz., IC50. In short, it runs like this:
as §1

Take “Gly-Gly-NMePhe-F(4amPEG2NHRDOTAGA-Lu)-hS(Pr)-Trp-Gly-K(COpipzaa)-Asp-D-Pro (cyclo(GG[NMeF][F(4amPEG2NHRDOTAGA-Lu)][hS(Pr)]WGK(COpipzaa)D[dP]); also: Lu complex) [Example C33]”: the Kd – broadly, the constant that tells how readily two partners part at equilibrium – in the assay with mouse FAP [1] is less than 0.02 nM. In addition, the values for the IC50 in the assay with human FAP and in the assay with mouse FAP [2] were 0.012 nM and 0.026 nM, respectively.
On the same counts, the results for “Gly-Gly-NMePhe-F(4amPeG2NHDOTA-Ga)-Ahp-Trp-Gly-K(COpipzaa)-asp-D-Pro (cyclo(GG[NMeF][F(4amPEG2NHDOTA-Ga)″][Ahp(2)]WGK(COpipzaa)D[dP]); also: Ga in DOTA chelate) [Example C46]” are less than 0.016 nM, 0.012 nM and 0.032 nM.
Substance “K(COpipzaa)-Gly-NMePhe-F(4OEtNHDOTA-Lu)-Ahp-Trp-Gly-Tyr-Asp-D-Pro (cyclo(K(COpipzaa″)G[NMeF][F(4OEtNHDOTA-Lu)][Ahp(2)]WGYD[dP]); also: Lu complex) [Example C25]” had an equilibrium dissociation constant (Kd) with mouse FAP [1] of 0.34 nM. The IC50 – broadly, the concentration at which inhibition is half-maximal – with human FAP worked out at 0.098 nM; with mouse FAP [2] it was 0.35 nM.
On the same counts, the results for “Pro-Gly-NMePhe-F(4amPEG2NHDOTA-Lu)-hS(Pr)-Trp-Gly-K(COpipzaa)-Asp-D-Pro (cyclo(PG[NMeF][F(4amPEG2NHDOTA-Lu)″][hS(Pr)]WGK(X4)D[dP])) [Example C20]” are less than 0.031 nM, 0.016 nM and 0.03 nM.
On the same counts, the results for “hSer-Gly-NMe3PyA-F(4amPEG2NHDOTA-Lu)-hS(Pr)-W7N-Gly-K(COpipzaa)-Asp-D-Pro [Example C6]” are less than 0.035 nM, 0.024 nM and 0.049 nM.
Take “hSer-Gly-NMePhe-F(4amPEG2NHDOTA-Lu)-hS(Pr)-Trp-Gly-K(COpipzaa)-Asp-D-Pro [Example C4]”: the Kd on mouse FAP [1] is less than 0.039 nM. Moreover, the IC50 on human FAP was 0.011 nM; at mouse FAP [2], 0.032 nM.
